From article doi:10.1101/2022.01.09.475535 (bioRxiv, 2022)

Target: T1, SF3B1 ULM5 peptide (residues 333-351), wild type (human, UniProt O75533-1 333-351)
T1 peptide: KRKSRWDETPASQMGGSTP
Test: ITC

B1: U2AF2 UHM (U2AF homology motif domain of U2AF2) (domain or fragment)
chain: TEVLCLMNMVLPEELLDDEEYEEIVEDVRDECSKYGLVKSIEIPRPVDGVEVPGCGKIFVEFTSVFDCQKAMQGLTGRKFANRVVVTKYCDPDSYHRRDFW
  fold increase of affinity against the ULM5 peptide with the longer N-terminus: 2 fold

B2: U2AF2 UHM K453A (domain or fragment)
chain: TEVLCLMNMVLPEELLDDEEYEEIVEDVRDECSKYGLVKSIEIPRPVDGVEVPGCGKIFVEFTSVFDCQKAMQGLTGRAFANRVVVTKYCDPDSYHRRDFW
  fold decrease of affinity against the wild-type U2AF2 UHM: 4 fold
